{"source": "patent US20060073517A1", "target": "histone H3 methylated on lysine 9 and phosphorylated on serine 10", "experiment": "binding graph, method not stated (FIG. 2)"}
{"substance": "HP1 (heterochromatin protein 1)", "values": [{"measurement": "fold drop in binding affinity (against H3 methylated on Lys 9 without phospho-Ser 10)", "value": 100, "unit": "fold"}]}
